{
  "source": "paper PMC7512442",
  "biological_target": "T1, RBM22 (pre-mRNA-splicing factor RBM22) (Homo sapiens, UniProt Q9NW64 1-420)",
  "T1 sequence": "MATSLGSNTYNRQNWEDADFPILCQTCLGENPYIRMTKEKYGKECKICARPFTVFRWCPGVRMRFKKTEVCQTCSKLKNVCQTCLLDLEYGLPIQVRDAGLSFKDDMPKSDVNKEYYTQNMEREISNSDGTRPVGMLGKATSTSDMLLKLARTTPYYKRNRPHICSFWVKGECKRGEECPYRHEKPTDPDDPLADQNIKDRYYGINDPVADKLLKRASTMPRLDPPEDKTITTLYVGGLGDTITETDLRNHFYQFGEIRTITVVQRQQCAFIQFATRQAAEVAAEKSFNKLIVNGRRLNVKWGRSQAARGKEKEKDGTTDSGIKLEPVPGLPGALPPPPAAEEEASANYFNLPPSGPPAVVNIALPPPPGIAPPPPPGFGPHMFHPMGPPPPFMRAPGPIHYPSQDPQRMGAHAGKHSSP",
  "assay": "EMSA",
  "data": [
    {"binder": "GGGGAUCCACAUGGUUCUUGCCUUUU (ssRNA)", "note": "[human U5 snRNA fragment (nonspecific control)]", "values": [
      {"measurement": "binding result", "result": "no binding"}
    ]}
  ]
}
